Results from patent US20200277374A1 (Alector, published 2020).

Experiments:
[1] = molecular target: T1, human Siglec-7 expressed on human cells (primary monocytes, dendritic cells, macrophages, NK cells, … (human, UniProt Q9Y286 19-467)); assay: cell-based or functional assay
[2] = molecular target: T1, human Siglec-7 expressed on human cells …; assay: cell-based or functional assay; remark: listed apart in the source
[3] = molecular target: T1, human Siglec-7 expressed on human cells …; assay: cell-based or functional assay; remark: listed apart in the source
[4] = molecular target: T1, human Siglec-7 expressed on human cells …; assay: FACS, human primary monocytes, 10 ug/ml mAb
Procedure: (§1) Initial characterization of Siglec-7 antibodies involved determining their ability to bind Siglec-7 expressed on human primary monocytes, human primary macrophages, human primary dendritic cells, human primary neutrophils, and human primary natural killer (NK) cells. Cells were harvested, plated at 10⁶/ml in a 96 well plate, and incubated in 100 ul PBS containing 2% FBS, 2 mM EDTA and 10 μg/ml Mab and Fc blocking reagent for 1 hour in ice. Cells were washed twice and incubated in 100 ul PBS containing 2% FBS, 2 mM EDTA and 5 ug/ml PE-conjugated secondary antibody for 30 minutes on ice. Cells were washed twice in cold PBS and analyze by flow cytometry on a BD FACS Canto. Data analysis and calculation of MFI values was performed with FlowJo (TreeStar) software version 10.0.7.
(§2) Percent positive binding and mean fluorescent intensity (MFI) values for cell types bound by Siglec-7 antibodies are listed in Table 4A. Binding is compared to an isotype control. The antibodies bind to human primary monocytes, human primary dendritic cells, and human primary macrophages. In Table 4A, “Buffer” refers to cells that were treated only with the PBS buffer described supra; “Secondary Ab” refers to cells that were treated only with the PE-conjugated secondary antibody; “mIgG1,” “mIgG2a,” and “mIgG2b” refer to isotype control antibodies; and “RDS7” refers to commerically available anti-Siglec-7 antibody Mab1138 (R&D Systems; Cat. No. MAB 1138).

[5] = molecular target: T1, human Siglec-7 expressed on human cells …; assay: FACS, human primary macrophages, 10 ug/ml mAb
Procedure: as §1, §2

[6] = molecular target: T1, human Siglec-7 expressed on human cells …; assay: FACS, human primary dendritic cells, 10 ug/ml mAb
Procedure: as §1, §2

[7] = molecular target: T1, human Siglec-7 expressed on human cells …; assay: FACS titration on primary human dendritic cells, donor 358, 4 C
Procedure: (§3) Two Siglec-7 antibodies, 4E3 and 10B5, were titrated 2-fold for a 12-point curve with a concentration range of 6.67-0.00325 nM to assess binding and calculate half-maximal concentration (EC₅₀) for binding to primary human dendritic cells (FIG. 5B). Antibodies were serially diluted and incubated with cells in PBS with 1% BSA, 1 mM EDTA for 1 hour on ice (4° C.). Cells were pelleted and resuspended with goat anti-mouse secondary antibody conjugated with APC (BD Biosciences) at a 1:200 dilution in buffer. Secondary detection antibody was incubated for 30 minutes on ice (4° C.), then cells were washed 3 times in buffer before analyzing on a BD FACS Canto for APC MR. Data were analyzed with FlowJo Software (TreeStar).

[8] = molecular target: T1, human Siglec-7 expressed on human cells …; assay: FACS titration on primary human dendritic cells, donor 359, 4 C
Procedure: as §3

[9] = molecular target: T2, Histidine-tagged human Siglec-7 (NovoProtein) (human, UniProt Q9Y286 19-357, limits assumed); assay: SPR (BiaCore T200, 25 C), antibody captured on anti-mouse IgG, Siglec-7-His 25 nM, single-concentration kinetics
T2 construct: Bought protein; also called purified Siglec-7-his tagged protein; not shown: histidine tag
Procedure: (§4) SPR data was collected at a rate of 10 Hz at 25′ C on a BiaCore T200 instrument. Data analysis was performed using BiaCore T200 Evaluation Software, version 2.0. HBS-EP+ (100 mM HEPES, 1.5 M NaCl, 30 mM EDTA, 0.5% v/v Surfactant P20, pH 7.4) was used as running buffer and for preparing reagents.
(§5) Mouse-derived antibodies (25 nM) against Siglec-7 were captured (60 s contact time, 30 μL/min flow rate, 0 s stabilization time) on a CM5 sensor chip (GE Healthcare) immobilized with anti-mouse IgG. Histidine-tagged human Siglec-7 (NovoProtein) was then flowed over the captured anti-Siglec-7 surface (120 s contact time, 30 μL/min flow rate, 300 s dissociation time). Concentration of antigen ranged from 5 nM to 100 nM, depending on information obtained from an initial screen. Duplicate single-concentration trials were performed and bracketed by a blank (0 nM antigen) sample. The chip surface was regenerated in between cycles using 10 mM glycine-HCl, pH1.7 (60 s contact time, 30 μL/min flow rate, 60 s stabilization time). The resulting SPR signal was obtained as the difference in response from measurements performed on a blank flow cell.
(§6) Affinity constants (KD) were calculated from the ratio kd/kₐ. For one antibody (clone 1E8), we validated the single-concentration analysis with a multiple-concentration approach (five concentrations of antigen used, plus one blank).

[10] = molecular target: T3, Siglec-7-Fc (plate immobilized) (human, UniProt Q9Y286 19-357, limits assumed); assay: RBC solid adhesion assay, plate-coated Siglec-7-Fc, antibody 0.5 or 1.0 ug/ml; % of RBC binding without antibody
T3 construct: also called Siglec-7-Fc protein; immobilized Siglec-7; not shown: Fc part
Procedure: To determine which antibodies compete with ligand binding to Siglec-7, a red blood cell (RBC) solid adhesion assay was carried out in accordance with standard protocols (Kelm et al., Current Biology, 1994). Red blood cells are highly decorated with glycoproteins containing sialic acids: therefore, the ability of an antibody to block RBC binding to immobilized Siglec-7 can be used to determine ligand interference. Briefly, 5 μg/ml Siglec-7-Fc was coated overnight at RT in 96 well Immunolon plates, then washed with PBS, blocked for one hour with binding buffer (PBS containing %0.25 BSA 1 mM CaCl₂), Siglec-7 antibodies (0.5 μg/ml or 1.0 μg/ml) were bound for one hour at RT with gentle rocking. After removal of unbound antibody, red blood cells were added to each well at a concentration of 3.0×10⁶ cells per ml and incubated at RT for one hour. Unbound RBCs were then carefully washed off 3× with PBS, and water was added to each well for hypotonic lysis of bound RBCs. The plate was transferred to −80° C. for 10 minutes, followed by 37° C. for 15 minutes. Bound RBCs were detected by peroxidase activity, followed by 2N sulfuric acid to stop the reaction. Signal was detected at […]. Data was calculated as a percent of RBC binding to plate bound Siglec-7-Fc in the absence of antibody.

[11] = molecular target: T2, Histidine-tagged human Siglec-7 …; assay: SPR (BiaCore T200, 25 C), antibody captured on anti-mouse IgG, Siglec-7-His 20 nM, single-concentration kinetics
Procedure: as §4, §5, §6

T2 sequence (Q9Y286 19-357 limits assumed): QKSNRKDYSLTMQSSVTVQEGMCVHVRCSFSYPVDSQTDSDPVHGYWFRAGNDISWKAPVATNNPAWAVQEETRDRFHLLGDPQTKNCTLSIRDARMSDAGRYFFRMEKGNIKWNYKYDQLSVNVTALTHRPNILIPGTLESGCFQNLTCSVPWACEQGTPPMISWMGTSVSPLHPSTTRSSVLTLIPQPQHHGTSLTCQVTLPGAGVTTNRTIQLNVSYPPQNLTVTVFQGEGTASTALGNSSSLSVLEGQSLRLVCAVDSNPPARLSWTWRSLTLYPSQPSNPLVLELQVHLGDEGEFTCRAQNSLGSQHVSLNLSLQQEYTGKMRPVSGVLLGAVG
T3 sequence (Q9Y286 19-357 limits assumed): as above
T1 sequence (Q9Y286 19-467): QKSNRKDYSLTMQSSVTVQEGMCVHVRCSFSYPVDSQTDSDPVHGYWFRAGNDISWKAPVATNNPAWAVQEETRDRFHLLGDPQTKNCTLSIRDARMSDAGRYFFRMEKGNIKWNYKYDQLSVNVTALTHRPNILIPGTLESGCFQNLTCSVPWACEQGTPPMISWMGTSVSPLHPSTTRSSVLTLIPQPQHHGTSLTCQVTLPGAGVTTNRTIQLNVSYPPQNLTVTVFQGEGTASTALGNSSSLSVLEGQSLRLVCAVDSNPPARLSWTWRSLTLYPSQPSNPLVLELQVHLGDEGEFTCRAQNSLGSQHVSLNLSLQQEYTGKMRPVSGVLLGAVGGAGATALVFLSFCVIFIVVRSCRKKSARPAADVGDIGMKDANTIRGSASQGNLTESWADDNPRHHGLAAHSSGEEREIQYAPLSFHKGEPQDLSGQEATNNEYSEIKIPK

Percent Siglec-7 Surface Expression, DCs [1] [%]	Percent Siglec-7 Surface Expression, Monocytes [1] [%]	Percent Siglec-7 Surface Expression, U937 cells [1] [%]	Percent Siglec-7 Surface Expression, Macrophages [2] [%]	Percent Siglec-7 Surface Expression, Microglia [2] [%]	Percent Siglec-7 Surface Expression, NK cells [2] [%]	% Positive [4] [%]	MFI [4]	% Positive [5] [%]	MFI [5]	% Positive [6] [%]	MFI [6]	Kd [9] [nM]	Percent RBC Binding to Siglec-7 [10] [%]	Kd [11] [nM]	Binder	also measured
1100	140	121	95.7	106	114	99.4	577	99.5	25700	99.7	10200		14.5	0.1	anti-Siglec-7 antibody 2G1 (antibody, V domains shown, Variable domains assembled from FR and CDR entries; the printed VL FR1 looks shortened at its N-terminus; also called 2G11 (misprint in text)) VH: EVKLVESGGTLVKPGGSLKISCAASGFTFSNYDMSWVRQNPEKRLEWVATISSGGDYTYYPDIFKGRFTISRDDAKNALYLQMSSLRSEDTALYYCARHGYGNYDWYFDVWGAGATVTVSS VL: VLTQSPAIMSASPGEKVTMTCSANSSFIYMYWYQQKPGSSPRLLIFDTSNLASGVPIRFSGSGSGTSYSLTISRMEAEDTATYYCQQWSSSPLTFGGGTKLELK	
19.9	23.9	82.4	7.4	34.2	108	98.7	380	99.6	4040	99.6	2520	1	26.8		anti-Siglec-7 antibody 3E11 (antibody, V domains shown, Variable domains assembled from FR and CDR entries) VH: QVQLQQSGAELARPGASVKLSCKASGYIFTDYGITWVKQRTGQGLEWIGEISPRSGETYFNENYRVKATLTADKSSSTAYMQLFSLTSEDSAVYFCAREGNPFTYWGHGTLVTVSA VL: DVZMTQTPLSLPVSLGDQASISCRSSQSLVHSTGNTYLHWYLQKPGQSPKLLIYKVSNRFCGVPDRFSGSGAGTDFTLKISRVEAEDLGVYFCSQNTHVPYTFGGGTKLEIK	

Second part, the binder before the results:

Binder	Percent Siglec-7 Surface Expression, DCs [1] [%]	Percent Siglec-7 Surface Expression, Monocytes [1] [%]	Percent Siglec-7 Surface Expression, U937 cells [1] [%]	Percent Siglec-7 Surface Expression, Macrophages [2] [%]	Percent Siglec-7 Surface Expression, Microglia [2] [%]	Percent Siglec-7 Surface Expression, NK cells [2] [%]	% Positive [4] [%]	MFI [4]	% Positive [5] [%]	MFI [5]	% Positive [6] [%]	MFI [6]	Kd [9] [nM]	Percent RBC Binding to Siglec-7 [10] [%]	Kd [11] [nM]	also measured
anti-Siglec-7 antibody 4E3 (antibody, V domains shown, VL FR1 there holds a Z); also called S7-4E3; mAb S7-4E3) VH: EVQLVESGGALVKPGGSLKISCAVSGFIFSNYDMSWVRQNPEKRLEWVATISSGGGYTYYPDSVKGRFTISRDNAKNALYLQMSSLRSEDTALYYCTRHGYGNYDWYFDVWGAGATVTVSS VL: QIVLTQSPAILSASPGEKVTMTCSANSSFTYMYWYQQKPGSSPRLLIFDTSNLASGVPIRFSGSGSGTSYSLTISRMEAEDTATYYCQQWSSSPLTFGAGTKLELK	11.2	15.1	30.8	4.2	20.9	31.2	98.6	362	99.6	4150	99.7	2650	0.3	20.2		EC50 of Siglec-7 cell surface downregulation, primary human dendritic cells, donor 362 [3]: 0.114 nM; EC50 of Siglec-7 cell surface downregulation, primary human dendritic cells, donor 363 [3]: 0.095 nM; EC50 of Siglec-7 cell surface downregulation, primary human dendritic cells, donor 364 [3]: 0.0499 nM; EC50 of Siglec-7 cell surface downregulation, primary human dendritic cells, donor 365 [3]: 0.0336 nM; EC50 [7]: 0.336 nM; EC50 [8]: 0.301 nM
anti-Siglec-7 antibody 7A3 (antibody, V domains shown, Variable domains assembled from FR and CDR entries; VL FR1 and VH FR1 hold Z and VH FR1 looks shortened at its N-terminus) VH: LVZSGGALVKPGGSLKLSCAASGFTFSNYAMSWVRQTPEKRLEWVASISSGGSYNYYPDSVKGRFTISRDNARNTLYLQMSSLRSKDTAMYYCASQSYGSSYWYFDVWGAGTTVTVSS VL: DIQMTQZPATLSVTPGDRVSLSCRASQSISEYLHWYHQKSHESPRLLIKFASQSICGIPSRFSGSGSGSDFTLTINSVEPEDVGVYYCQNGHNFPYTFGGGTKLEIK	11	23.7	76.3	8.3		77.1	97.9	407	99.7	2840	99.7	956		89.5	1	
